T1: mouse IgE (mouse, UniProt P06336 1-421)
T1 heavy (looked up): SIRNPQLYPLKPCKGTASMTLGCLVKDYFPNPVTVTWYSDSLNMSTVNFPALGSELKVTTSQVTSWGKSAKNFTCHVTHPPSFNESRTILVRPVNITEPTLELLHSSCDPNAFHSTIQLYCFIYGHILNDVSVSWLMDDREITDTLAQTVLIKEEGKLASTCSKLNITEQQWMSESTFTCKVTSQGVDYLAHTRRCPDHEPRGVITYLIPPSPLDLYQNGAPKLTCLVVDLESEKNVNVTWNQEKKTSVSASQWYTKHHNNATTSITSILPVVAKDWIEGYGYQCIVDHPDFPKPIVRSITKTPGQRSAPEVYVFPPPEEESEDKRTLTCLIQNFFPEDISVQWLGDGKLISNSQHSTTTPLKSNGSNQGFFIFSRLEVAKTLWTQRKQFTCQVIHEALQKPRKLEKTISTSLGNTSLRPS

T2: human IgE (human, UniProt P01854-1 1-428)
T2 heavy (looked up): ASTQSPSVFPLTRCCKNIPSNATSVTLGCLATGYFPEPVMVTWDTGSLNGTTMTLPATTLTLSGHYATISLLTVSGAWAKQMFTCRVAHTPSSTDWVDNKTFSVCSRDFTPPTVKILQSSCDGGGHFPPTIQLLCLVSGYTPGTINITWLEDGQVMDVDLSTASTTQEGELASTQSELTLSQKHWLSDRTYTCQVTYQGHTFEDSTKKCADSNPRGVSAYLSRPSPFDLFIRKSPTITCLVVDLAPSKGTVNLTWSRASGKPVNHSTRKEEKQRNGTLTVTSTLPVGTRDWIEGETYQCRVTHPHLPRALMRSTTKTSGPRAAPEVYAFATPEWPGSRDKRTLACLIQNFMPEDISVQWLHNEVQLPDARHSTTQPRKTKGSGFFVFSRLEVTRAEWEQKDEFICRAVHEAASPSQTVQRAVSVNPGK

T3: FcγRI
T3 construct: not in the MOLECULES list; also called IgG receptor FcγRI; Fc gamma receptor I
T3 chain: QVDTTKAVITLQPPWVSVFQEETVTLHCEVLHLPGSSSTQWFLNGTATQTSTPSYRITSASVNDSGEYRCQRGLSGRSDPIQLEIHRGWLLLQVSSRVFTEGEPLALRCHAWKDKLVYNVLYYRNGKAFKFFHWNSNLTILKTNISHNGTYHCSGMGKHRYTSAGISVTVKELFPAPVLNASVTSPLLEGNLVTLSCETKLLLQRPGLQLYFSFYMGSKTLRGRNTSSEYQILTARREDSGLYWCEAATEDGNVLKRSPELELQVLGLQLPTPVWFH


Key:
[1] = biological target: T1, mouse IgE; experiment: cell-based or functional assay
[2] = biological target: T2, human IgE; experiment: cell-based or functional assay
[3] = biological target: T3, FcγRI; experiment: BLI (Octet RED384), FcγRI immobilised on AR2G biosensor, IgETRAP 0.25-4 µM in solution
Procedure: FcγRI, FcγRIIA, FcγRIIB, FcγRIIIA, and FcγRIIIB recombinant proteins (R & D Systems Inc., 5 μg/ml) were immobilized in 300 mM acetate buffer (pH 5) on the activated AR2G biosensor. As a running buffer, PBS containing 0.1% Tween-20 and 1% bovine serum was used. All experiments were carried out at 30° C. with a sample plate shaker at a rate of 1,000 rpm.

[4] = biological target: T4, IgE; experiment: SPR (ProteOn XPR36), KD against omalizumab as reference; the same paragraph ties 69-fold to FcεRIαECD-Fc2ST
T4 construct: also called immunoglobulin E
Procedure: The experiments were conducted by identifying zero base using 25 mM NaOH as a regeneration buffer, and then repeating the above steps. Thereafter, a binding curve was identified using a protein binding analyzer (ProteOn XPR36, Bio-Rad Laboratories, Inc., USA).

| mast cell inhibition ratio (β-hexosaminidase release, mouse bone marrow-derived mast cells) at 0.5 ug/mL [1] | mast cell inhibition ratio (β-hexosaminidase release, mouse bone marrow-derived mast cells) at 1 ug/mL [1] | IC50 of mast cell inhibition (β-hexosaminidase release, human FcεRI-expressing mouse bone marrow-derived mast cells) [2] | inhibitory ability on mast cell activity, fold against Xolair [2] | binding result [3] | fold difference of KD against omalizumab (printed as 'higher') [4] | Binder |
| --- | --- | --- | --- | --- | --- | --- |
| ~49.4% | ~99.4% |  |  |  |  | FcεRIαECD-Fc2 (Fc fusion) VPQKPKVSLNPPWNRIFKGENVTLTCNGNNFFEVSSTKWFHNGSLSEETNSSLNIVNAKFEDSGEYKCQHQQVNESEPVYLEVFSDWLLLQASAEVVMEGQPLFLRCHGWRNWDVYKVIYYKDGEALKYWYENHNISITNATVEDSGTYYCTGKVWQLDYESEPLNITVIKAPREKYWLQRNTGRGGEEKKGSKEKEEQEERETKTPECPSHTQPLGVFLFPPKPKDTLMISRTPEVTCVVVDVSQEDPEVQFNWYVDGVEVHNAKTKPREEQFNSTYRVVSVLTVLHQDWLNGKEYKCKVSNKGLPSSIEKTISKAKGQPREPQVYTLPPSQEEMTKNQVSLTCLVKGFYPSDIAVEWESNGQPENNYKTTPPVLDSDGSFFLYSRLTVDKSRWQEGNVFSCSVMHEALHNHYTQKSLSLSLGK |
|  |  | ~0.0112 µg/mL | 58 fold | no binding (tested: 4 µM) | 22 to 69 fold | FcεRIαECD-Fc2ST (Fc fusion, sialic acid added (co-expressed with α-2,6-sialic acid transferase), also called IgETRAP; FcεRIαECD-Fc2 + a2,6-ST) VPQKPKVSLNPPWNRIFKGENVTLTCNGNNFFEVSSTKWFHNGSLSEETNSSLNIVNAKFEDSGEYKCQHQQVNESEPVYLEVFSDWLLLQASAEVVMEGQPLFLRCHGWRNWDVYKVIYYKDGEALKYWYENHNISITNATVEDSGTYYCTGKVWQLDYESEPLNITVIKAPREKYWLQRNTGRGGEEKKGSKEKEEQEERETKTPECPSHTQPLGVFLFPPKPKDTLMISRTPEVTCVVVDVSQEDPEVQFNWYVDGVEVHNAKTKPREEQFNSTYRVVSVLTVLHQDWLNGKEYKCKVSNKGLPSSIEKTISKAKGQPREPQVYTLPPSQEEMTKNQVSLTCLVKGFYPSDIAVEWESNGQPENNYKTTPPVLDSDGSFFLYSRLTVDKSRWQEGNVFSCSVMHEALHNHYTQKSLSLSLGK |

From patent US20210070833A1 (GI INNOVATION, published 2021)
